From the Human Domainome abundance scans (Beltran et al. 2025)

B1: Transcription intermediary factor 1-beta, residues 620 to 671; numbered along this chain, Q13263 (parent)
chain: TLDDSATICRVCQKPGDLVMCNQCEFCFHLDCHLPALQDVPGEEWSCSLCHV

Variants of: B1
Assay: abundance fitness (aPCA) (normalised: wild type 0, dead -1); higher = more abundant; growth selection in yeast, the domain comes from the species named
Conditions: Homo sapiens

Abundance fitness: each site, then its substitutions
L34: G 0.098, C 0.274, V 0.062, F 0.03, A 0.164, I -0.305, S 0.283, N 0.543, E 0.188, Q 0.05, T -0.065, Y 0.062, D 0.325, P 0.036, K 0.13, W -0.328, H 0.157
C32: V -1.03, S -0.507, G -0.652, D -0.683, T -0.937, E -0.871, H -0.501, A -0.545, M -0.952, R -0.704, Q -0.904, F -0.959, W -0.923, I -0.911, Y -0.45, P -0.454, K -0.795, L -0.925, N -0.528
H33: L -0.117, S 0.012, N -0.139, R -0.109, I -0.325, Q 0.042, D 0.086, A -0.013, P -0.344, C 0.217, G -0.159, K -0.218, V 0.033, Y -0.294, E 0.2, T -0.235, M -0.205, W -0.444
L37: R -0.106, Y -0.27, E -0.499, H -0.215, D -0.278, V -0.094, Q -0.108, C -0.021, W 0.118, K -0.421, T 0.035, M -0.083, P -0.138, S -0.071, N -0.334, F -0.344
D31: C -0.709, S -0.317, N 0.175, G -0.004, M -0.365, F -0.558, W -0.921, K -0.528, R -0.324, T -0.308, E -0.202, P -0.175, I -0.501, Q 0.04, V -0.254, A -0.257, H -0.024
P35: H -0.431, Q -0.698, F -0.637, T -0.552, L -0.508, S -0.128, G -0.244, V -0.458, K -0.18, N -0.222, E -0.447, W -0.799, A -0.553, D -0.447, R -0.488, M -0.291
H29: V -0.952, G -0.899, P -1.34, F -0.864, T -0.637, Q -0.957, E -0.919, L -1.01, Y -0.921, W -0.908, N -0.504, K -0.807, R -0.749, M -0.967, I -1.12
A36: D -0.394, S 0.079, K -0.183, R 0.058, Q -0.633, N -0.384, V 0.06, I -0.449, Y -0.499, W -0.527, H -0.168, E 0.034, C -0.713, T -0.161, L -0.173, P 0.077, G -0.116
Q38: F -0.39, I 0.079, E -0.434, L -0.227, S -0.295, M -0.443, R 0.023, A -0.02, K -0.18, N 0.082, C -0.401, P -0.437, G -0.181, T -0.345, H -0.279
L30: Q -0.432, T -0.292, M -0.299, N -0.264, E -0.196, H -0.194, G -0.375, R -0.02, C -0.135, S -0.145, A -0.116, W -0.271, F -0.609, P -0.139, D -0.755, K -0.312, I -0.479
